# Test results: patent US20240228986A1, “ENGINEERED CELLS, ENZYMES, AND METHODS FOR PRODUCING CANNABINOIDS” (priority 2021, published 2024)
# B1: GPS1.1-F11-MPT4: fusion of GPS1.1 and MPT4 via F11 linker, SEQ ID NO: 16 (protein)
# chain: MSKAKFESVFPRISEELVQLLRDEGLPQDAVQWFSDSLQYNCVGGKLNRGLSVVDTYQLLTGKKELDDEEYYRLALLGWLIELLQAFWLVSDDIMDESKTRRGQPCWYLKPKVGMIAIWDAFMLESGIYILLKKHFRQEKYYIDLVELFHDISFKTELGQLVDLLTAPEDEVDLNRFSLDKHSFIVRYKTAYYSFYLPVVLAMYVAGITNPKDLQQAMDVLIPLGEYFQVQDDYLDNFGDPEFIGKIGTDIQDNKCSWLVNKALQKATPEQRQILEDNYGVKDKSKELVIKKLYDDMKIEQDYLDYEEEVVGDIKKKIEQVDESRGFKKEVLNAFLAKIYKRQKGGAEAAAKEAAAKAGGSGGGSGGGGSGGSGGGGSGGGGSMSDNSIATKILNFGHTCWKLQRPYVVKGMISIACGLFGRELFNNRHLFSWGLMWKAFFALVPILSFNFFAAIMNQIYDVDIDRINKPDLPLVSGEMSIETAWILSIIVALTGLIVTIKLKSAPLFVFIYIFGIFAGFAYSVPPIRWKQYPFTNFLITISSHVGLAFTSYSATTSALGLPFVWRPAFSFIIAFMTVMGMTIAFAKDISDIEGDAKYGVSTVATKLGARNMTFVVSGVLLLNYLVSISIGIIWPQVFKSNIMILSHAILAFCLIFQTRELALANYASAPSRQFFEFIWLLYYAEYFVYVFI
# modifications: GPS1.1-F11-MPT4, geranyl diphosphate synthase, membrane-bound prenyltransferase fusion protein
# Experiments:
# [1] = test system: olivetolic acid; test: Linkers for GPS1.1-MPT4 fusions, in vivo assay (Example 6); assay type: cell-based, Yarrowia; conditions: 1 mM olivetolic acid, 72 h quench
# Protocol: As described in detail below, plasmids pCL-SE-0380 (MPT4), pCL-SE-0406, pCL-SE-0435, and pCL-SE-0437 were transformed into strain sCL-SE-0128. Four separate colonies per transformation were precultured for 24 h in YNB containing glycerol (2%), casamino acids (0.5%), and MES (100 mM pH 6.5). Pre-culture was used to inoculate assay medium comprised of YNB containing glycerol (2%), casamino acids (0.5%), MES (100 mM pH 6.5), and olivetolic acid (1 mM). Cultures were quenched after 72 h total growth by mixing with equal volume of EtOH. Enzymes produced CBGA and FCBGA. Averages and standard deviations were calculated from replicates.
# However, sCL-SE-0128 expresses HMGR and GPS1.1 to increase intracellular GPP levels for prenylation of OA to CBGA. The plasmids that were transformed contain either a gene expressing a prenyl-transferase (pCL-SE-0380 (MPT4)) or a gene expressing a fusion between GPS1.1 and a prenyl-transferase with different linker sequences.
# Overnight YPD (10 g/L yeast extract, 20 g/L peptone, 2% dextrose) cultures were inoculated from glycerol stocks of the appropriate strain and grown at 30° C. with 250 rpm shaking. Once cultures had reached an OD600 of 4-6, cultures were centrifuged at 500×g for 5 min, supernatants were discarded, and cell pellets were resuspended in equal volume of water. Resuspended cells were centrifuged at 500×g for 5 min, supernatants were discarded, and cells were resuspended in a volume (75 μL×OD×Vculture) of transformation cocktail (45% PEG-400, 0.1 M LiAc, 0.1 M DTT, and 25 ug/100 μL SS Salmon Sperm DNA). For each transformation, >1 μg of plasmid DNA was added to 55 μL cells/transformation cocktail and vortexed for 2 s. Transformations were incubated at 39° C. for 1 h with 250 rpm shaking. Transformations were resuspended in 750 μL YPD with 1 M sorbitol and recovered at 30° C. overnight with 250 rpm shaking. The next day, transformations were centrifuged at 500×g for 5 min, supernatants were discarded, and cell pellets were resuspended in 750 YPD. Resuspended transformations were plated on YPD with appropriate selection or YNBD (6.71 g/L yeast nitrogen base+nitrogen, 0.5% casamino acids, 2% dextrose) agar plates and grown at 30° C. for 2 days. Individual colonies were patched onto YPD plates with appropriate selection or YNBD plates and grown at 30° C. overnight. Patches were used to inoculate 0.5 mL YPD with appropriate selection or YNBD precultures in 96 w blocks and grown at 30° C. for 24-48 h with 1000 rpm shaking. For assays, 0.5 mL YPD with appropriate selection or YNBD cultures containing substrate were inoculated with 2 μL from precultures and grown at 30° C. for 2-4 days with 1000 rpm shaking with 2% glucose added every 24 h. Assay cultures were quenched by addition of 0.5 mL ethanol with 0.2% formic acid and 0.5 mg/mL pentyl-benzoic acid. Precipitates were pelleted by centrifuging at 4600×g for 10 min and then 200 μL was transferred to fresh plates, sealed, and analyzed via HPLC.
# All samples were quenched with equal volume of EtOH containing 0.2 mg/mL internal standard (3,5-Diisopropyl-2-hydroxybenzoic acid CAS #2215-21-6) centrifuged, and clarified solutions were analyzed by HPLC-MS
# • Column: 2.1×50 mm COSMOCORE PBr (Nacalai USA, Inc.) • Mobile Phase: A; 0.1% formic acid in water, B; 0.1% formic acid in acetonitrile • Flow: 0.45 mL/min • Temp: % 50 Celsius • Gradient: 20%B at 0 min, 70%B at 2.3 min, 89% B at 4.2 min, 20% B at 4.3 min, 20%B at 6 min
# [2] = test system: olivetolic acid; test: MPT fusions with GPS1.1 vs unfused MPTs, OA feed (Example 8, Table 9); assay type: cell-based, Yarrowia; conditions: 2 mM olivetolic acid, 48 h quench
# Outline: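 Yeast strain sCL-SE-0128 carrying MPT or GPS1.1–MPT fusion plasmids, precultured 48 h in YNB/2% glucose/0.5% casamino acids/100 mM MES pH 6.5. Assay medium was the same plus 2 mM olivetolic acid, 30 °C. Cultures were ethanol-quenched at 48 h total growth, and CBGA and FCBGA were measured by HPLC-MS with internal standard; values are replicate means ± SD.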
# [3] = 2% glycerol, strain sCL-SE-0128
molecule,measurement,setting,value
B1,CBGA,[1]; [3],393 ± 41 µM
same,FCBGA,[1]; [3],60 ± 5 µM
same,CBGA/FCBGA,[1]; product ratio,6.6
same,CBGA,"[2]; 2% glucose, strain sCL-SE-0128",200 ± 3 µM
same,FCBGA,"[2]; 2% glucose, strain sCL-SE-0128",24 ± 1 µM
same,CBGA/FCBGA,[2]; product ratio,8.2
